In doi:10.1101/2020.07.01.179531v1:

Substrate: O=P(O)(O)OC[C@@H](O)[C@@H](O)[C@H](O)[C@H](O)CO
Assay: purified protein
Conditions: 3 mM DTT added; other conditions presumably as for EsM1Pase1short

B1: EsM1Pase2 (Ectocarpus siliculosus) (protein)
chain: MEKAKAFDKMSILFDFDGTIGDTETPAMEVAFWELAPYLPDTTPDKLDGLMPEFVRDNAGKAFEFMVEKVDEDRKAAGLSTISEAFAAKSEPKEMLDAVDPHRKKFGLKTFAELRAPDGGEKENLLIQQKTETVDALSKIAQPCNGVPEVLAALTAAGVAFCISTTSPKPRVPASITACKLDEYFPADKVHSGESDFDPPRFKPNPSVYLKAAETEGKEPANCIAVEDSGSGVGSASNAGVGLTVGYVGASHIPDYKKDTHAEMLMSGGRAENGKGAEIVISDMTDLPKVIEFFAGEKIAGKSAPFDFPEELISSLKQPVWVHSTKA
Km: 1300 µM | kcat: 0.05 s⁻¹
